Patent US20260116991A1 (HAINAN SIMCERE ZAIMING PHARMACEUTICAL, published 2026)

Molecular target: biotinylated labeled human GPC3 protein (produced in-house) (human, UniProt P51654 25-559, limits assumed, biotinylated (Dojindo, Cat. No. LK03); sites not stated)
Experiment: ELISA, biotinylated human GPC3 protein

OD450 at 0.0008 nM [OD450]	OD450 at 0.004 nM [OD450]	OD450 at 0.02 nM [OD450]	OD450 at 0.11 nM [OD450]	OD450 at 0.53 nM [OD450]	OD450 at 2.67 nM [OD450]	OD450 at 13.33 nM [OD450]	OD450 at 66.66 nM [OD450]	Binder
0.076	0.078	0.101	0.268	0.904	1.49	1.92	2.1	hAb006LH1L1a (antibody, human IgG1, V domains shown, Humanized F3.38.7; VH H1 + VL L1a; expressed as human IgG1) VH: EVQLVQSGAEVKKPGSSVKVSCKASGYTFSDYEIHWVRQAPGQGLEWMGAIDPKTGNTAYNQKFMGRVTITADKSTSTAYMELSSLRSEDTAVYYCTRYFSFAYWGQGTLVTVSS VL: DIVMTQTPLSLPVTPGEPASISCRSSQTFVHSDGNTYLQWYLQKPGQSPQLLIYKVSNRFSGVPDRFSGSGSGTDFTLKISRVEAEDVGVYYCFQGSHVPYTFGQGTKLEIK
0.087	0.112	0.218	0.634	1.57	2.1	2.2	2.22	hAb007LH1L1a (antibody, human IgG1, V domains shown, Humanized F3.81.19; VH H1 + VL L1a; expressed as human IgG1) VH: EVQLVQSGAEVKKPGSSVKVSCKASGYTFSDYEMHWVRQAPGQGLEWMGTIDPETGNTAYNQKFKGRVTITADKSTSTAYMELSSLRSEDTAVYYCTRPYSLTYWGQGTLVTVSS VL: DIVMTQTPLSLPVTPGEPASISCRSSQSFVHSDGDTYLQWYLQKPGQSPQLLIYKVSNRFSGVPDRFSGSGSGTDFTLKISRVEAEDVGVYYCFQGSHVPYTFGQGTKLEIK
0.076	0.072	0.087	0.207	0.909	1.48	1.83	2.07	hAb006LH3L1a (antibody, human IgG1, V domains shown, Humanized F3.38.7; VH H3 + VL L1a; expressed as human IgG1) VH: EVQLVQSGAEVKKPGSSVKVSCKASGYTFTDYEIHWVRQAPGQGLEWMGAIDPKTGNTAYNQKFMGRVTLTADKSTSTAYMELSSLRSEDTAVYYCTRYFSFAYWGQGTLVTVSS VL: DIVMTQTPLSLPVTPGEPASISCRSSQTFVHSDGNTYLQWYLQKPGQSPQLLIYKVSNRFSGVPDRFSGSGSGTDFTLKISRVEAEDVGVYYCFQGSHVPYTFGQGTKLEIK
0.083	0.088	0.14	0.353	1.04	1.78	2.04	2.03	hAb007LH3L1a (antibody, human IgG1, V domains shown, Humanized F3.81.19; VH H3 + VL L1a; expressed as human IgG1) VH: EVQLVQSGAEVKKPGSSVKVSCKASGYTFTDYEMHWVRQAPGQGLEWMGTIDPETGNTAYNQKFKGRVTLTADKSTSTAYMELSSLRSEDTAVYYCTRPYSLTYWGQGTLVTVSS VL: DIVMTQTPLSLPVTPGEPASISCRSSQSFVHSDGDTYLQWYLQKPGQSPQLLIYKVSNRFSGVPDRFSGSGSGTDFTLKISRVEAEDVGVYYCFQGSHVPYTFGQGTKLEIK
0.073	0.072	0.076	0.139	0.584	1.37	1.74	1.92	hAb006LH2L1a (antibody, human IgG1, V domains shown, Humanized F3.38.7; VH H2 + VL L1a; expressed as human IgG1) VH: EVQLVQSGAEVKKPGSSVKVSCKASGYTFTDYEIHWVRQAPGQGLEWMGAIDPKTGNTAYNQKFMGRVTITADKSTSTAYMELSSLRSEDTAVYYCTRYFSFAYWGQGTLVTVSS VL: DIVMTQTPLSLPVTPGEPASISCRSSQTFVHSDGNTYLQWYLQKPGQSPQLLIYKVSNRFSGVPDRFSGSGSGTDFTLKISRVEAEDVGVYYCFQGSHVPYTFGQGTKLEIK
0.092	0.099	0.173	0.491	1.29	1.95	2.12	2.09	hAb007LH2L1a (antibody, human IgG1, V domains shown, Humanized F3.81.19; VH H2 + VL L1a; expressed as human IgG1) VH: EVQLVQSGAEVKKPGSSVKVSCKASGYTFTDYEMHWVRQAPGQGLEWMGTIDPETGNTAYNQKFKGRVTITADKSTSTAYMELSSLRSEDTAVYYCTRPYSLTYWGQGTLVTVSS VL: DIVMTQTPLSLPVTPGEPASISCRSSQSFVHSDGDTYLQWYLQKPGQSPQLLIYKVSNRFSGVPDRFSGSGSGTDFTLKISRVEAEDVGVYYCFQGSHVPYTFGQGTKLEIK
